From the supplement of paper PMC9732359
± gives the uncertainty stated by the source.

Assay: protein stability index of a GFP-peptide fusion (yeast GPS) (PSI 1-4); higher = more stable; sorted into four equal gates, so the index is relative within each strain
How it was run: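 Sequencing reads from sorted gates were used to score each peptide. The library consisted of tiled 17-residue yeast protein peptides fused downstream of GFP on a Cherry-expressing plasmid, pooled and carried in yeast. Mid-log cultures in leucine-free medium were split into four equal gates by GFP/Cherry ratio, and each gate's plasmids were PCR-amplified and Illumina-sequenced. The protein stability index adds up, over all gates, the read frequency multiplied by the gate number.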

Sequence	protein stability index (doa10∆)	protein stability index (pdr5∆)	protein stability index (san1∆)	protein stability index (ubr1∆)
IALSRRFLLNGRVKALE [YDL116W/NUP84]	1.25 ± 0.062	1.3 ± 0.058	1.19 ± 0.13	1.24 ± 0.035
ALDTNGTSATTETLTSK [SIR4]	2.22 ± 0.076	2.19 ± 0.066	2.9 ± 0.065	1.93 ± 0.045
STFRLNLSVTSPYNADF [RPO21]	2.21 ± 0.05	2.34 ± 0.054	2.6 ± 0.075	2.93 ± 0.044
EKAKEMIRLLGSESDDS [ECM29]	2.51 ± 0.2	2.13 ± 0.11		1.53 ± 0.14
KCLVEKSICFENCLNND [SWI1]	1.81 ± 0.097	2.67 ± 0.057	2.69 ± 0.064	2.61 ± 0.078
FDTVSNKLFTEPIKLEP [YMR129W/POM152]	2.58 ± 0.046	2.7 ± 0.065	2.64 ± 0.057	2.91 ± 0.036
LEKLIFDMTNHYNDSQQ [SRB8]	2.82 ± 0.053	2.23 ± 0.045	2.47 ± 0.065	2.51 ± 0.036
QPSQQPQQAQQQPNPLH [GAL11]	2.91 ± 0.05	2.95 ± 0.037	2.85 ± 0.035	2.97 ± 0.034
PSKDSFTKYKPARSSSL [YAR002W/NUP60]	2.15 ± 0.043	2.59 ± 0.044	2.44 ± 0.053	2.77 ± 0.04
PAWRVWLNFLRGTIPLL [PRP8]	2.38 ± 0.089	1.88 ± 0.071	1.33 ± 0.1	2.96 ± 0.083
LDNFQKSVEKTMIKKTT [SMC3]		3.29 ± 0.19	2.89 ± 0.069	3.17 ± 0.075
MKLVPSIPPATIETFNE [RPB5]	2.41 ± 0.053	2.41 ± 0.06	2.11 ± 0.051	2.57 ± 0.049
QQMHEVRKELRGRAVVL [RPP0]	3.01 ± 0.14	3.05 ± 0.13	3.27 ± 0.099	2.58 ± 0.073
VQYLRSVQDLGGSATAR [YML031W/NDC1]	2.14 ± 0.13	1.5 ± 0.069	1.53 ± 0.22	1.57 ± 0.064
TENAIEEKVIERAAQKL [ISW2]	2.61 ± 0.095	2.74 ± 0.17		2.79 ± 0.051
TASSLAHDYNNDQDMFT [YML103C/NUP188]	3.19 ± 0.067	3.04 ± 0.063	3.17 ± 0.046	3.12 ± 0.055
KNDDNSCRNPEHTDVID [YIL149C/MLP2]	3.03 ± 0.15	2.75 ± 0.099	2.98 ± 0.093	2.97 ± 0.086
NQTNINSLAVRGKDCTV [SCL1]	2.83 ± 0.14	3.26 ± 0.088	3.29 ± 0.068	3.19 ± 0.12
YFRILLPYERHMISQEG [SWI1]	1.37 ± 0.052	1.54 ± 0.047	1.5 ± 0.097	1.6 ± 0.045
ELYSFQQLVDSEKRLDH [SNF12]	1.35 ± 0.095	2.26 ± 0.074	2.26 ± 0.11	1.57 ± 0.053
RVVTVDGKLIDISGTMS [SMC4]		3.11 ± 0.19	3.35 ± 0.06	3.52 ± 0.12
NAAVAGVANTDTAGEES [SWI3]	3.06 ± 0.061	3.27 ± 0.062	3 ± 0.046	3.15 ± 0.056
IPLGKNVVVKWQGKPVF [RIP1]	3.36 ± 0.26		3.42 ± 0.07	2.96 ± 0.26
TSNWEIYKPLLFEIVSN [SRB8]	1.59 ± 0.062	2.05 ± 0.066	2.11 ± 0.14	1.23 ± 0.08

Sequence	protein stability index (doa10∆)	protein stability index (pdr5∆)	protein stability index (san1∆)	protein stability index (ubr1∆)
NSSEIQSAIRPAGQATQ [RPL4A]	2.63 ± 0.085	2.85 ± 0.094	2.77 ± 0.039	2.57 ± 0.062
AQQDSTNVRLYSLLLAS [ECM29]	2.27 ± 0.068	2.04 ± 0.052	2.39 ± 0.047	2.43 ± 0.04
RKAYFTAPSSQRRVLLS [RPL26A]	2.44 ± 0.055	2.14 ± 0.056	2.54 ± 0.054	1.74 ± 0.047
QIRDVMERFSVLCNSNI [RRP6]	2.41 ± 0.11	2.82 ± 0.11	2.18 ± 0.15	2.38 ± 0.084
NGWEKYLHNVELGEKKN [ISW2]	1.7 ± 0.087	1.8 ± 0.14	1.65 ± 0.16	2.56 ± 0.092
KARSPGIAKPNAIQTEV [SIR4]	3.36 ± 0.067	3.35 ± 0.092	3.18 ± 0.075	3.22 ± 0.066
KLTILQEGIEAIATTVI [RET1]	2.79 ± 0.069	2.32 ± 0.06	2.51 ± 0.082	2.78 ± 0.037
LTYDRLEFATIRKGAND [PRE9]			2.62 ± 0.24	
KDGLKLVGSWKKDRATG [RPO21]	3.58 ± 0.2		3.33 ± 0.15	
AKLRKELVETSEVRKAV [FAS2]	2.7 ± 0.16			1.38 ± 0.25
LPSAVDGENDKKEATKP [YLR335W/NUP2]	3.36 ± 0.082	3.29 ± 0.067	3.05 ± 0.056	3.37 ± 0.059
MSHRKYEAPRHGHLGFL [RPL3]		3.15 ± 0.19	2.9 ± 0.099	2.94 ± 0.23
LKEVPTYRYVSVSVLVD [RPS25A]	2.64 ± 0.079	2.13 ± 0.069	1.33 ± 0.1	1.66 ± 0.038
PKDTSAATMTSAPPPAL [RGR1]	2.49 ± 0.1	2.59 ± 0.1	2.51 ± 0.069	2.85 ± 0.097
KSGIPEFTPADPNLSFE [SSN2]	2.96 ± 0.091	3.04 ± 0.055	2.78 ± 0.054	3.25 ± 0.062
YIDEMYNHNDGGDGRDY [RRI1]	2.47 ± 0.1	3.26 ± 0.1	3.3 ± 0.21	2.75 ± 0.13
KPEIDENGTLLVPPPRT [RPR2]	3.02 ± 0.048	3.15 ± 0.051	2.99 ± 0.036	2.987 ± 0.029
CLLSIPKSTKGKILTIK [YML103C/NUP188]	1.67 ± 0.053	1.87 ± 0.062	1.66 ± 0.11	1.97 ± 0.054
YIYSQETKSWINESAEN [MED1]	2.58 ± 0.047	2.66 ± 0.039	2.46 ± 0.048	2.48 ± 0.031
VDAITRCYQPFELFDNK [SNU114]	3 ± 0.073	3.06 ± 0.068	2.96 ± 0.049	3 ± 0.068
SELAGDEELEAEQIDVF [PRP8]	3.08 ± 0.2	3.19 ± 0.2	3.07 ± 0.16	2.75 ± 0.18
RLQGIKLLDNIQEYQLC [COR1]	2.46 ± 0.13	2.24 ± 0.092	2.06 ± 0.13	2.34 ± 0.063
APTLSQTYINQELGFCE [SSN2]	2.85 ± 0.18	2.81 ± 0.16	1.95 ± 0.22	2.92 ± 0.18
